Results: PMC6219552, “β-Glucuronidases of opportunistic bacteria are the major contributors to xenobiotic-induced toxicity in the gut” (Scientific Reports, 2018)

Tests used:
[1] = biological target: Bifidobacterium dentium β-D-glucuronidase, catalytically inactive mutant E479A (Bifidobacterium dentium); assay: crystal structure; crystals of the purified GUS alone, soaked with UIFG (RgGUS, BfGUS) or with compound 10 (BifdGUS E479A); oligomer as seen in the crystal structures
[2] = biological target: the molecule itself; assay: as above

Molecule	stoichiometry N [1]	stoichiometry N [2]
Bifidobacterium dentium β-D-glucuronidase, catalytically inactive mutant E479A (enzyme)	4	
Ruminococcus gnavus β-D-glucuronidase (enzyme) MLEYSELYPIQNEYRMMQSLDGMWKFQFDPEEIGKKSGWENGLPAPVSMPVPSSFADFFTDHKERDYCGDFWYETEFYLPAEWRNKKIWLRFGSITHRGTVYCNGMEITSHEGGFLPVLADISTVAKPGQVNQVVVKINNELNETSLPCGATKILNNGRKLAKPYFDFFNYSGLQRSVWVIALPEESVKDYSVDYELCGTDALVKYEVVTTGEHPVIVRLLDAEGELVAETEGKEGILQVANARLWEVRNAYLYQIVILITDGNGVLDEYREKIGIRTVRIEGTKILLNDRPVYLKGFGKHEDFPILGRGFHWGIVKRDFECLKWTNANCFRTSHYPYAEEWYQFADEEGFLIIDEVPAVGMMRSTRNFVAAGSGNYTYFFEALTVPELLKSHIADTEEMITRDKNHPSVIAWSLFNEPETITDYAYEYFKEVFAAAETYDFQSRPMTGAFEKNSKPELCKCYPLCDFICLNRYYGWYISGGPEIEEAEELFRDEMDRWKAKELNVPFVFTEFGTDTMAGLHKLPSIMWSEEYQKEYLEMNFRVFDSYEFVQGELAWNFADFQTTEGIMRVDGNHKGVFTRDRQPKAAAVVFKDRWEKKNELF		4
Bacteroides fragilis β-D-glucuronidase (enzyme, β-D-glucuronidase (GUS) of Bacteroides fragilis, codon-optimized gene bought from GenScript, in pET15b; apo structure PDB 3CMG named as search model; Crystallised and soaked with UIFG; Its PDB code is one of 5Z18, 5Z19, 5Z1A, 5Z1B; also called BfGUS) RQDILLNNNWNFRFSHQVQGDTRRVDLPHTWNAQDALAGKIDYKRGIGNYEKALYIRPEWKGKRLFLRFDGVNSIADVFINRKHIGEHRGGYGAFIFEITDLVKYGEKNSVLVRANNGEQLDIMPLVGDFNFYGGIYRDVHLLITDETCISPLDYASPGVYLVQEVVSPQEAKVCAKVNLSNRAADGTAELQVLVTDGTKVICKESRNVSLKQGADILEQLPLLIQKPRLWNGCEDPFMYQVSISLHKDGKQIDSVTQPLGLRYYHTDPDKGFFLNGKHLPLHGVCRHQDRAEVGNALRPQHHEEDVALMREMGVNAIRLAHYPQATYMYDLMDKHGIVTWAEIPFVGPGGYADKGFVDQASFRENGKQQLIELIRQHYNHPSICFWGLFNELKEVGDNPVEYVKELNALAKQEDPTRPTTSASNQDGNLNFITENIAWNRYDGWYGSTPKTLATFLDRTHKKHPELRIGISEYGAGASIYHQQDSLKQPSASGWWHPENWQTYYHMENWKIIAERPFVWGTFVWNMFDFGAAHRTEGDRPGINDKGLVTFDRKVRKDAFYFYKANWNKQEPMIYLAEKRCRLRYQPEQTFMAFTTAPEAELFVNGVSCGKQKADTYSTVVWKNVKLTSGENIIRVTTPGKKPLTDEVTVEYKEDR		4
